Measurements taken from article doi:10.1101/2024.07.10.602847.

Molecular target: AeCRK^G359E-mCherry (Aeschynomene evenia)
Test: co-IP

AeRLCK2-YFP (natural protein)
fold enrichment compared to the negative control MtLYK3-CFP: 2.9 fold

AeCRK^G359E-mCherry (receptor)
fold enrichment compared to the negative control MtLYK3-CFP: 7.37 fold
